In doi:10.1101/2022.05.03.490446 (bioRxiv, 2022):
Where two headings read alike, the source gives them in different places. Blank lines part the entries; values can stand above or below the molecule they belong to.

Legend:
GroEL [1] = target: T1, GroEL (E. coli, UniProt P0A6F5 1-548); assay: atomic force microscopy
GroEL [2] = target: T1, GroEL; assay: SEC
GroEL [3] = target: T1, GroEL
GroEL [4] = target: T1, GroEL; assay: fluorescence polarisation + other fluorescence titration
GroEL [5] = target: T1, GroEL; assay: other fluorescence titration

T1 sequence (P0A6F5 whole entry): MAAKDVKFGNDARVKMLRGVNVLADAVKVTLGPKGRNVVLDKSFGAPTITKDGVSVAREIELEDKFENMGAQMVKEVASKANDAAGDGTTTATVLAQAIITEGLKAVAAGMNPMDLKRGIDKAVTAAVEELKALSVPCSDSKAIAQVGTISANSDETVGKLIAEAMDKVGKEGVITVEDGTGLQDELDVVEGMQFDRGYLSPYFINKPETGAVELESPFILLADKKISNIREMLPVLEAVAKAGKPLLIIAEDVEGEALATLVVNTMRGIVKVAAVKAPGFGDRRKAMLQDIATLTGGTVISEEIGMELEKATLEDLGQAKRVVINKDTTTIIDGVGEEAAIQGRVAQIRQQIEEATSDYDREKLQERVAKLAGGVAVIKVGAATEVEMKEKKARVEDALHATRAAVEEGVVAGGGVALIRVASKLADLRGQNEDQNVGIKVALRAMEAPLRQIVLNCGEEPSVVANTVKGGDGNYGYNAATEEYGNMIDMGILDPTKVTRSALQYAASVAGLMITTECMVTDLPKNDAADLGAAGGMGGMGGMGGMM

specific binding force (GroEL [1]): 175 pN
stoichiometry N (GroEL:CnoX molar ratio) (GroEL [2]): 14
Molecule: CnoX (from UniProt P77395 1-284) (natural protein)

Kd (GroEL [3]): 350 nM
Kd (GroEL [4]): 310 nM
Molecule: fluorescein-labeled CnoX (from UniProt P77395 1-284) (natural protein)

Ki (GroEL [5]): 47 nM
B1: GroES (natural protein)
chain: MNIRPLHDRVIVKRKEVETKSAGGIVLTGSAAAKSTRGEVLAVGNGRILENGEVKPLDVKVGDIVIFNDGYGVKSEKIDNEEVLIMSESDILAIVEA
